Test [1] concerns the target T1, F-actin (rabbit skeletal muscle α-actin, filamentous) (rabbit (Oryctolagus cuniculus), UniProt P68135 1-377). Kind of test: other fluorescence titration.
Test [2] concerns the target T1, F-actin (rabbit skeletal muscle …). Kind of test: fluorescence polarisation. Background: In fluorescence polarisation assays a small probe gives low polarisation when free and higher when bound to something large.

B1: SipAC-Core (SipA residues 512-658), unlabelled (domain or fragment)
chain: TGPFSGLKFKQNSFLSTVPSVTNMHSMHFDARETFLGVIRKALEPDTSTPFPVRRAFDGLRAEILPNDTIKSAALKAQCSDIDKHPELKAKMETLKEVITHHPQKEKLAEIALQFAREAGLTRLKGETDYVLSNVLDGLIGDGSWRA
Take B1: the Kd – broadly, the free concentration of one partner at which half of the binding sites on the other are occupied at equilibrium, for simple one-to-one binding – in test [1] is 81 nM.

B2: FM-SipAC-ΔArm2 (SipA residues 425-658 labelled with fluorescein maleimide) (domain or fragment)
chain: TGETTSFDEVDGVTSKSIIGKPVQATVHGVDDNKQQSQTAEIVNVKPLASQLAGVENVKTDTLQSDTTVITGNKAGTTDNDNSQTDKTGPFSGLKFKQNSFLSTVPSVTNMHSMHFDARETFLGVIRKALEPDTSTPFPVRRAFDGLRAEILPNDTIKSAALKAQCSDIDKHPELKAKMETLKEVITHHPQKEKLAEIALQFAREAGLTRLKGETDYVLSNVLDGLIGDGSWRA
modifications: labeled with fluorescein maleimide (FM)
B2: the equilibrium dissociation constant (Kd) in test [2] came to 120 nM.

For the origin of these results see article PMC11162321 (Structure (London, England : 1993), 2024).
